Results reported in PMC7948409.

How the values were obtained:
[1] = molecular target: F-actin (actin filaments) from rabbit leg and back muscle (UniProt P68135); assay: single-molecule TIRF microscopy; in vitro motility assay under TIRF; HMM (342.8 nM incubation) on TMCS glass; Alexa-488 phalloidin F-actin propelled with 1 mM MgATP; 5 nM Alexa-647 gelsolin; pCa 8.2; 23 °C; conditions: other: single-molecule TIRF microscopy
[2] = molecular target: F-actin (actin filaments) from rabbit leg and back muscle (rabbit) (UniProt P68135); assay: as above
[3] = molecular target: F-actin (actin filaments) from rabbit leg and back muscle (rabbit) (UniProt P68135); assay: single-molecule TIRF microscopy; HMM (34.2 nM incubation) adsorbed on TMCS glass; rhodamine phalloidin F-actin (5 nM) held stationary in rigor, no MgATP; 5 nM Alexa-647 gelsolin in solution; no added Ca2+ (pCa > 9); 23 °C; 9 min observation

## Alexa-647-labeled gelsolin (His-tagged recombinant full-length human cytoplasmic gelsolin)
[1]
  percent of sliding filaments with bound gelsolin, corrected for the labeling efficiency: approximately 55% of all sliding filaments have bound gelsolin

## Alexa-647-labeled gelsolin (His-tagged recombinant full-length human cytoplasmic gelsolin) (natural protein)
[2]
  gelsolin molecules bound per filament: 1 per filament
  percent of HMM-propelled actin filaments with bound labeled gelsolin: 36.5%
[3]
  gelsolin attachments per filament during 9 min: 1.7 per filament
